Measurements published in article PMC7904663 (Nature chemical biology, 2021).

Assays:
[1] = target: T1, NicA2 (Pseudomonas putida, UniProt F8G0P2); assay: biochemical
T1 sequence (F8G0P2 1-482): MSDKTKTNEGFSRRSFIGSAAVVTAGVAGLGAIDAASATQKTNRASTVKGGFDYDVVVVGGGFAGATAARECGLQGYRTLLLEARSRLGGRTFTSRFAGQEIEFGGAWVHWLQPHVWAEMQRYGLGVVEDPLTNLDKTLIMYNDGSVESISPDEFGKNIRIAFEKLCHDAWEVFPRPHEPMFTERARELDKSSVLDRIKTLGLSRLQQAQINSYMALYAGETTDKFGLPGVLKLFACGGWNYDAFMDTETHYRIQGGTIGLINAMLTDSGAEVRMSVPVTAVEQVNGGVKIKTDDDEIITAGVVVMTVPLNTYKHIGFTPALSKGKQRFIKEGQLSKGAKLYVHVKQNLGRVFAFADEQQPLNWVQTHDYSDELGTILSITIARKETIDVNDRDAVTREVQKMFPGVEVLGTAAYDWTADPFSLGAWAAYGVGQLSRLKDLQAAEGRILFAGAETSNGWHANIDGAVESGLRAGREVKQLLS

[2] = target: Nicotine oxidoreductase (NicA2) (Pseudomonas putida S16) (UniProt F8G0P2); assay: stopped-flow absorbance spectrophotometry

Compound	Kd [1] [µM]	bimolecular rate constant (kon), first phase, N-methylmyosmine-bound NicA2 [2] [M⁻¹ s⁻¹]	bimolecular rate constant (kon), second phase, N-methylmyosmine-bound NicA2 [2] [M⁻¹ s⁻¹]	kon, first phase (CycNox with NicA2-Flred) [2] [M⁻¹ s⁻¹]
c1cncc(C2=NCCC2)c1 [myosmine]	268 ± 3	–	–	–
CycN (cytochrome c of Pseudomonas putida S16) (natural protein)	–	140000	77000	1e+06
